Results: patent publication US20230346919A1

Biological target: Spike (S) protein of the SARS-CoV-2 clinical isolate, strain 2019 n-CoV/USA_WA1/2020 (SARS-CoV-2 strain 2019 n-CoV/USA_WA1/2020) (UniProt P0DTC2)
Assay: cell-based or functional assay

Substance	EC50, inhibition of SARS-CoV-2 infection (FRNT, Vero E6 cells) [µg/mL]	EC50, neutralization of SARS-CoV-2 (FRNT, Vero E6 cells) [µg/mL]
human ACE2-Fc (hACE2 residues 1-615, HRV-3C site, human IgG1 Fc) (from UniProt Q9BYF1 18-615) (Fc fusion)	12.6	
mAb S309 (antibody)		0.081
